For the experiment, the target named is Purified Mor1 (Example 9) (Mus musculus (Mouse)) (UniProt P42866). Kind of experiment: cell-based or functional assay.

Chain of Heterotrimeric Gi (P63096 2-354): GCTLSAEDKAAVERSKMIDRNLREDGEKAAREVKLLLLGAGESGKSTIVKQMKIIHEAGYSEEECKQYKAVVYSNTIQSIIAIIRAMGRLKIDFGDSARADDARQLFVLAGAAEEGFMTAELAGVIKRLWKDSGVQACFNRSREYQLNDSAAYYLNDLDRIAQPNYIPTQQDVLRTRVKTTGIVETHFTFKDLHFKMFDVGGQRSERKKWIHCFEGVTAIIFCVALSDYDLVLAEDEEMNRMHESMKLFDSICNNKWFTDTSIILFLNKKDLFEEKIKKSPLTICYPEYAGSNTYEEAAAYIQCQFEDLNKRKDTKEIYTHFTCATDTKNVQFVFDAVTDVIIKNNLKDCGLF
Chain of Heterotrimeric Gi (P62873 2-340): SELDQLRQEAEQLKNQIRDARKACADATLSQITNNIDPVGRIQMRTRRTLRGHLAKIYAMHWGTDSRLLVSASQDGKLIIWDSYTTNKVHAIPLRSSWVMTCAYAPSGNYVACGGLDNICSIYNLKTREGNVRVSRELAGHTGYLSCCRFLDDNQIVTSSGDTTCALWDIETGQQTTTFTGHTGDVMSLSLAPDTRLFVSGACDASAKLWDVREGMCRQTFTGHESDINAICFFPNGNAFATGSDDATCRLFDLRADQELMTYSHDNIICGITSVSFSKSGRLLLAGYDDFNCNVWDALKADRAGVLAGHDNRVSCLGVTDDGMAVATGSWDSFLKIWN

Regarding “Heterotrimeric Gi (from UniProt P63096 2-354; P62873 2-340)”, the enhancement of agonist (BU72) affinity for Mor1 in HDL particles was 220 fold.
